From patent US20240239875A1 (published 2024)
Read-outs that look alike come from different tables or passages of the source.

B1: 3-E2-A (antibody, V domains shown)
VH: EVQLQQSGPELVKPGASVKISCKASGYTFTDYYMNWVKQSHGKSLEWIGDINPNNGGTSYTQKFKGKATLTVDKSSSKAYMELRSLTSEDSAVYYCARRGDGHYGGFTYWGQGTLVTVSA
VL: not shown
B2: 10-L24-A (antibody, V domains shown)
VH: EVQLQQSGPELVKPGASVKISCKASGYTFTDYYMNWVKQSHGKSLEWIGDINSNNGGTTYDQKFKGKATLTVDRSSSTAYMELRSLTSEDSAVYYCARRGDGHFGGFTYWGQGTLVTVSA
VL: not shown
B3: 2-O12-A (antibody, V domains shown)
VH: EVQLQQSGPELVKPGASVKISCKASGYTFTDYYMNWVKQSHGKSLEWIGDINSNNGGTTYDQKFKGKATLTVDRSSSTAYMELRSLTSEDSAVYYCARRGDGHFGGFTYWGQGTLVTVSA
VL: not shown
B4: 4-L4-A (antibody, V domains shown)
VH: QAYLQQSGAELVRPGASVKMSCKASGYTFTSYTVHWVKQTPRQGLEWIGGIYPGNVDTSYNQNFKGKATLTVDKSSSTAYMQLSSLTSEDSAVYFCARDGYYAMDYWGQGTSVTVSS
VL: not shown
B5: 9-K4-A (antibody, V domains shown)
VH: QAYLQQSGAELVRPGASVKMSCKASGYTFPNYSFHWVKQTPRQGLEWIGAIYPGNDDTSYNQRFKGKATLTVDKSSSTAYMQLSSLTSEDSAVYFCARDYSNYPFDCWGQGTTLTVSS
VL: DIVLTQSPASLAVSLGQRATISCRASKSVSTSGYSYMHWYQQKPGQPPKLLIYLASNLESGVPARFSGSGSGTDFTLNIHPVEEEDAATYYCQHSRELPPTFGGGTKLEIK
B6: 3-P7-A (antibody, V domains shown)
VH: QAYLQQSGAELVRPGASVKMSCKASGYTFTSYSMHWVKQTPRQGLEWIGAIYPGNDDTSYNQKFKGKATLTVDKSSSTAYMQLSSLTSEDSAVYFCTRDYTNYPFDYWGQGTTLTVSS
VL: DIVLTQSPASLPVSLGQRATISCRASKSVSTSGYSYMHWYQQRPGQPPKLLIYLASNLESGVPARFSASGSGTDFTLNIHPVEEEDAATYYCQHSRELPPTFGGGTKVEIK
B7: 10-L12-A (antibody, V domains shown)
VH: QAYLQQSGAELVRPGASVKMSCKASGYTFTSYSMHWVKQTPRQGLEWIGAIYPGNGDTSYNQKFKGKATLTVDKSSSTAYMQLSSLTSEDSAVYFCTRDYSNYPFDYWGQGTTLTVSS
VL: DIVLTQSPASLAVSLGQRATISCRASKSVSTSGYSYLHWYQQKPGQPPKLLIYLASNLESGVPARFSGSGSGTDFTLNIHPVEEEDAATYYCQHSRELPPTFGGGTKLEIK
B8: 2-H7-A (antibody, V domains shown)
VH: QAYLQQSGAELVRPGASVKMSCKASGYTFTGYTMHWVKQTPRQGLEWIGAIYPENGDTSYNQKFKGKATLTVDKSSSTAYMQLSSLTSEDSAVYFCARDGYDVLYGMDYWGQGTSVTVSS
VL: DIVLTQSPASLAVSLGQRATISCRASKSVSTSGYSYMHWYQQKPGQPPKLLIYLASNLESGVPARFSGSGSGTDFTLNIHPVEEEDAATYYCQHSRELPWTFGGGTKLDIK
B9: 5-P24-A (antibody, V domains shown)
VH: QAYLQQSGAELVRPGASVKMSCKASGYTFTSYSMHWVKQTPRQGLEWIGAIYPGNGDTSYTQKFKGKATLTVDKSSSTAYMQLSSLTSEDSAVYFCARDYSNYPFDYWGQGTTLTVSS
VL: not shown
B10: 10-O24-A (antibody, V domains shown)
VH: QAYLQQSGAELVRPGASVKMSCKASGYTFTSYSMHWVKQTPRQGLEWIGAIYPGNDDTSYNQKFKGKATLTVDRSSSTAYMQLSSLTSEDSAVYFCTRDYSNYPFDYWGQGTTLTVSS
VL: DIVLTQSPASLAVFLGQRATISCRASKSVSTSGYSYMHWYQQRPGQPPKLLIYLASNLESGVPARFSGSGSGTDFTLNIHPVEEEDAATYYCQHSRELPPTFGGGTKLEIK
B11: 4-A15-A (antibody, V domains shown)
VH: QVQLQQSGAELVKPGASVKISCKASGNAFSSYWMNWVKQRPGKGLEWIGQIYPGDGDTNFNGRFKGKATLTADISSTTAYMLLSSLTSEDSAVYFCASGGYGSSYERDFDYWGQGTTLTVSS
VL: DIQMNQSPSSLSASLGDTITITCHASQNINVWLSWYQQKPGNIPKLLIYKASNLHTGVPSRFSGSGSGTGFTLTISSLQPEDIATYYCQQGHSYPLTFGGGTKLEIK
B12: 10-O3-A (antibody, V domains shown)
VH: QVQLKESGPGLVAPSQSLSITCTVSGFSLTNYAVHWVRQSPGKGLEWLGVIWSDGRTDYNAAFISRLSISKDNSKSQVFFKMNSLQADDTAIYYCVRIEGGSYVGWYFDVWGAGTTVTVSS
VL: DIQMTQSPSSLSASLGGTVTITCKASQDINKFIAWYQHKPGKGPRLLIHYTSTLQPGIPSRFSGSGSGRDYSFSISNLEPEDIATYYCLQYDNLLTFGAGTKLELK
B13: 9-J11-A (antibody, V domains shown)
VH: QVQLQQSGAELVKPGASVKMSCMASGYTFTTYPIEWMKQIHGKSLEWIGNFHPYNDDSKYNEKFKGKATLSVEKSSSTVYLELSRSTSDDSAVYYCARGSYGPYWYFDVWGTGTTVTVSS
VL: DIQMTQSPASLSASVGETVTITCRASGDIHNYLVWYQQKQGKSPQLLVYNAKALADGVPSRFSGSGSGTQYSLKINSLQPDDFGSYYCQHFWSIPYTFGGGTKLEIK
B14: 5-H22-A (antibody, V domains shown)
VH: QVQLQQSGAELVRPGASVTLSCKASGYTFTDYEMHWMKQTPVHGLEWIGAIDLETGGTVYNQKFKGKAILTADKSSNTAYMALRSLTSEDSAVYYCTREFPHYYGSRYGFPYWGQGTLVTVSA
VL: QIVLTQSPAIMSASPGEKVTITCSASSSVSYMHWLQQKPGTSPKLWIYSTSNLASGVPARFSGSGSGTSYSLTISRMEAEDAATYYCQQRSSYPYTFGGGTKLEIK
B15: 8-H3-A (antibody, V domains shown)
VH: EVQLVESGGGLVQPKGSLKLSCAASGFTFNTYAMHWVRQAPGKGLEWVARIRSKSSNYATYYADSVKDRFTISRDDSQSMLYLQMNNLKTEDTAMYYCVRDHDYYGSSYWFTYWGQGTLVTVSA
VL: DVVMTQTPLSLPVSLGDQASISCRSSQSLVHDNGNTYLHWFLQKPGQSPKLLIYKVSNRFSGVPDRFSGSGSGTDFTLKISRVETEDLGVYFCSQSTHVPWTFGGGTKLEIK
B16: 7-B10-A (antibody, V domains shown)
VH: EVQLVESGGGLVQPKGSLKLSCAASGFTFNTYAMHWVRQAPGKGLEWVARIRSKSSNYARYYADSVKDRFTISRDESQSMLYLQMNNLKTEDTAMYYCVRDHDYYGSSYWFAYWGQGTLVTVSA
VL: DVVMTQTPLSLPVSLGDQASISCSSSQSLVHNNGNTYLHWYLQKPGQSPKLLIYKVSNRFSGVPDRFSGSGSGTDFTLKISRVEAEDLGVYFCSQSTHVPWTFGGGTKLEIK
B17: 8-L17-A (antibody, V domains shown)
VH: EVQLVESGGGLVQPKGSLKLSCAASGFTFNTYAMHWVRQAPGKGLEWVARIRSKSSNYARYYADSVKDRFTISRDDSQSMLYLQMNNLKTEDTAMYYCVRDHDYYGSSYWFAYWGQGTLVTVSA
VL: DVVMTQTPLSLPVSLGDQASISCRSSQSLVHNNGNTYLHWYLQKPGQSPKLLIYKVSNRFSGVPDRFSGSGSGTDFTLKISRVEAEDLGVYFCSQSTHVPWTFGGGTKLEIK
B18: 4-K16-A (antibody, V domains shown)
VH: QIQLVQSGPELKKPGETVKISCKASGYTFTTYGMSWVKQAPGKGLKWMGWMSTYSGVPTYADDFKGRFAFSLETSASTAYLQINNLKNEDTATYFCASGDVGYWGQGTTLTVSS
VL: DIVMTQSQKFMSTSVGDRVSVTCKASQNVGTNVAWYQQKPGQSPKALIYSASYRYSGVPDRFTGSGSGTDFTLTISTVQSEDLAEYFCQQYNIYPSTFGGGTKLEIK
B19: 8-H5-A (antibody, V domains shown)
VH: QVTLKESGPGILQSSQTLSLTCSLSGFSLSTSGMGVSWVRQPSGKGLEWLAHIYWDDDKRYTPSLKSRLTISTDSSRKQVFLKITSVDTADTATYYCARRDLHDYDGWFAYWGQGTLVTVSA
VL: DIVMTQSQKFMSTAVGDRVSVTCKASQNVGTNVAWYQQKPGQSPKALIYSASFRYSGVPDRFSGSGSGTDFTLTISNVQSEDLAEYFCQQYNSYPLTFGSGTKLEIK
B20: 4-M3-A (antibody, V domains shown)
VH: EVQLQQSGPELVKPGDSVKISCKASGYSFTGYFMNWVMQSHGKSLEWIGRINPNNGETFYNQKFKGKATLTVDKSSDTAHMELRSLTSEDSAVYYCARGGTGTGWGQGTTLTVSS
VL: DILMTQSPSSMSVSLGDTVSITCHASQGISSNIGWLQQKPGKSFKGLIYYGTNLEDGVPSRFSGSGSGADYSLTISSLESEDLADYYCIQYAQFPYTFGGGTKLEIK
B21: 10-I12-A (antibody, V domains shown)
VH: RVQLQQSGPELVRPGTSVKISCKASGYTFTDSYINWVTQRPGQGLDWIGWIFPGNDNTYYNEKFEGKATLTLDKSSSTAYMLLSSLTSEDSAVYFCARSGGLRLGFAYWGQGTLVTVSA
VL: NIVLTQSPASLAVSRGQRATISCRASESVDSYGHSFIHWYQQKPGQPPKILIYLASKLESGVPARFSGSGSRTDFTLTIDPVEADDAATYYCQQNNEDPWTFGGGTKLEIK
B22: 7-N20-A (antibody, V domains shown)
VH: QVQLVETGGGLVRPGNSLKLSCVTSGFTFSNYRMHWLRQPPGKRLEWIGIITDKSDNYGANYAESVKGRFAISRDDSKSSVYLEMKRLREEDTATYFCSRDGYDWYFDLWGTGTTVTVSS
VL: DIVMTQSHKFMSTSVGDRVRITCKASQDVGIVVAWYQQKPGQSPKLLIYWASTRHTGVPDRFTGSGSGTDFTLTISNVQSEDLADYFCQQYSSYPTFGGGTKLEIK

How the values were obtained:
Experiment in all cases: ELISA
[1] = target: SARS-CoV-2 receptor binding domain (UniProt P0DTC2 319-541)
[2] = target: T1, SARS-CoV-2 prefusion stabilized trimer protein (WIV02 isolate spike protein) (UniProt P0DTC2 14-1213)
[3] = target: T1, SARS-CoV-2 prefusion stabilized trimer …; remark: listed apart in the source

Binder	EC50 [1]	EC50 [2]	EC50 [3]
B1	0.8 nM	0.87 nM	
B2	0.31 nM	0.92 nM	
B3	0.22 nM	0.84 nM	
B4	0.22 nM	0.37 nM	
B5	0.73 nM	1.13 nM	
B6	2.93 nM	38.1 nM	
B7	0.13 nM	0.11 nM	
B8	0.08 nM	0.13 nM	
B9	0.12 nM	0.29 nM	
B10	3.07 nM	1.07 nM	
B11		0.33 nM	0.34 nM
B12		3.47 nM	3.37 nM
B13		0.22 nM	0.22 nM
B14	166 nM	75.5 nM	18.5 nM
B15	0.19 nM	0.27 nM	
B16	0.08 nM	0.16 nM	
B17	0.27 nM	0.27 nM	
B18		1.04 nM	1.01 nM
B19	0.13 nM	0.08 nM	
B20	0.26 nM	1.94 nM	
B21		64.4 nM	64.4 nM
B22		0.24 nM	
